For this assay, the target named is CD20 (UniProt P11836). The assay is described as follows: cell-based or functional assay.
Chain of UniProt P11836 (P11836 whole entry): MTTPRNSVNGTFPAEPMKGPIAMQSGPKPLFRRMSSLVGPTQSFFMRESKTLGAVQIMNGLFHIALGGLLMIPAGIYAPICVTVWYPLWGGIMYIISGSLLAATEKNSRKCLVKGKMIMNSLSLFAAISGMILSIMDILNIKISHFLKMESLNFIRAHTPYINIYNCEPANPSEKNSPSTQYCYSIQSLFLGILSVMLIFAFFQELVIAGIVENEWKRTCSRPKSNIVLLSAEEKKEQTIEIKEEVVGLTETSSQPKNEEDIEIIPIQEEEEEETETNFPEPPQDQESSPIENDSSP

With Obinutuzumab (antibody), the EC:50 of percent specific lysis of ARH-77 cells, 4 h caspase assay, AB-202 + 0.01 µg/mL Obinutuzumab worked out at 1.21; the EC:50 of percent specific lysis of ARH-77 cells, 4 h caspase assay, AB-202 + 0.1 µg/mL Obinutuzumab stood at 1.05; the EC:50 of percent specific lysis of ARH-77 cells, 4 h caspase assay, AB-202 + 1 µg/mL Obinutuzumab amounted to 0.97; the EC:50 of percent specific lysis of ARH-77 cells, 4 h caspase assay, CBNK + 0.01 µg/mL Obinutuzumab turned out to be 2.99. Besides, the EC:50 of percent specific lysis of ARH-77 cells, 4 h caspase assay, CBNK + 0.1 µg/mL Obinutuzumab is 0.85; the EC:50 of percent specific lysis of ARH-77 cells, 4 h caspase assay, CBNK + 1 µg/mL Obinutuzumab amounted to 0.37; the fold increase of AB-202 killing activity on ARH-77 cells with 1 µg/mL Obinutuzumab versus no antibody worked out at 2.9 fold; the fold increase of CBNK killing activity on ARH-77 cells with 1 µg/mL Obinutuzumab versus no antibody is 66.5 fold.
In the case of Rituximab (antibody), the EC:50 of percent specific lysis of ARH-77 cells, 4 h caspase assay, AB-202 + 0.1 µg/mL Rituximab was 1.56; the EC:50 of percent specific lysis of ARH-77 cells, 4 h caspase assay, AB-202 + 1 µg/mL Rituximab came to 1.49; the EC:50 of percent specific lysis of ARH-77 cells, 4 h caspase assay, CBNK + 0.01 µg/mL Rituximab came out at 11; the EC:50 of percent specific lysis of ARH-77 cells, 4 h caspase assay, CBNK + 0.1 µg/mL Rituximab worked out at 3.25. Besides, the EC:50 of percent specific lysis of ARH-77 cells, 4 h caspase assay, CBNK + 1 µg/mL Rituximab came to 2.39.

These data come from US20240366663A1.
